The record followed here is publication PMC6013482, “Conformational switching of the pseudokinase domain promotes human MLKL tetramerization and cell death by necroptosis” (Nature Communications, 2018).

B1: wild-type human MLKL (residues 2–471), recombinant (natural protein, UniProt Q8NB16 2-471, looked up)
chain: ENLKHIITLGQVIHKRCEEMKYCKKQCRRLGHRVLGLIKPLEMLQDQGKRSVPSEKLTTAMNRFKAALEEANGEIEKFSNRSNICRFLTASQDKILFKDVNRKLSDVWKELSLLLQVEQRMPVSPISQGASWAQEDQQDADEDRRAFQMLRRDNEKIEASLRRLEINMKEIKETLRQYLPPKCMQEIPQEQIKEIKKEQLSGSPWILLRENEVSTLYKGEYHRAPVAIKVFKKLQAGSIAIVRQTFNKEIKTMKKFESPNILRIFGICIDETVTPPQFSIVMEYCELGTLRELLDREKDLTLGKRMVLVLGAARGLYRLHHSEAPELHGKIRSSNFLVTQGYQVKLAGFELRKTQTSMSLGTTREKTDRVKSTAYLSPQELEDVFYQYDVKSEIYSFGIVLWEIATGDIPFQGCNSEKIRKLVAVKRQQEPLGEDCPSELREIIDECRAHDPSVRPSVDEILKKLSTFSK
notes: human MLKL, residues 2–471; Elutes as oligomer (tetramer) and monomer peaks; the peaks were pooled except where indicated; Native MS used the oligomer SEC fraction; also called hMLKL; wild-type hMLKL; source: Sf21 insect cells (baculovirus), purified (glutathione agarose, TEV cleavage, Superdex S200); not shown: GST, N-terminal, cleaved

Data set [1] deals with the molecule itself. Nature of the data set: native MS; 250 mM ammonium acetate, nano electrospray; wild type: the oligomer SEC fraction; self-association.
Data set [2] concerns the molecule itself. Nature of the data set: AUC; sedimentation velocity, 0.25, 0.5 or 1 mg/mL hMLKL, 20 mM HEPES pH 7.5, 200 mM NaCl, 50,000 rpm, 20 °C; at 1 mg/mL also with 300 μM ATP; self-association (tetramer and monomer).
Data set [3] addresses B1. In words: SPR; SBP-hRIPK3 (2–356) immobilised on a streptavidin chip (Biacore SA); hMLKL flowed over at 1, 0.5, 0.25, 0.125, 0.0625 and 0 μM, 30 μL/min; 20 mM HEPES pH 8.0, 200 mM NaCl; 25 °C. The settings on record: both partners purified. In general terms: Surface plasmon resonance follows binding to a sensor surface in real time, without labels.

What is called stoichiometry N is the number of molecules, sites or subunits per partner or assembly. With B1, the “stoichiometry N” value in data set [1] came to 4.

B2: K331N human MLKL (residues 2–471), recombinant (natural protein, UniProt Q8NB16 2-471, looked up)
chain: ENLKHIITLGQVIHKRCEEMKYCKKQCRRLGHRVLGLIKPLEMLQDQGKRSVPSEKLTTAMNRFKAALEEANGEIEKFSNRSNICRFLTASQDKILFKDVNRKLSDVWKELSLLLQVEQRMPVSPISQGASWAQEDQQDADEDRRAFQMLRRDNEKIEASLRRLEINMKEIKETLRQYLPPKCMQEIPQEQIKEIKKEQLSGSPWILLRENEVSTLYKGEYHRAPVAIKVFKKLQAGSIAIVRQTFNKEIKTMKKFESPNILRIFGICIDETVTPPQFSIVMEYCELGTLRELLDREKDLTLGKRMVLVLGAARGLYRLHHSEAPELHGNIRSSNFLVTQGYQVKLAGFELRKTQTSMSLGTTREKTDRVKSTAYLSPQELEDVFYQYDVKSEIYSFGIVLWEIATGDIPFQGCNSEKIRKLVAVKRQQEPLGEDCPSELREIIDECRAHDPSVRPSVDEILKKLSTFSK
notes: human MLKL, residues 2–471, with K331N in the pseudocatalytic loop; also called K331N hMLKL; K331N hMLKL(2–471); source: Sf21 insect cells (baculovirus), purified (glutathione agarose, TEV cleavage, Superdex S200); not shown: GST, N-terminal, cleaved
With B2, the “stoichiometry N” value in data set [2] turned out to be 4.

B3: Streptavidin-binding peptide (SBP)-tagged human RIPK3 kinase domain (residues 2–356) (domain or fragment, UniProt Q9Y572 2-356, looked up)
chain: SCVKLWPSGAPAPLVSIEELENQELVGKGGFGTVFRAQHRKWGYDVAVKIVNSKAISREVKAMASLDNEFVLRLEGVIEKVNWDQDPKPALVTKFMENGSLSGLLQSQCPRPWPLLCRLLKEVVLGMFYLHDQNPVLLHRDLKPSNVLLDPELHVKLADFGLSTFQGGSQSGTGSGEPGGTLGYLAPELFVNVNRKASTASDVYSFGILMWAVLAGREVELPTEPSLVYEAVCNRQNRPSLAELPQAGPETPGLEGLKELMQLCWSSEPKDRPSFQECLPKTDEVFQMVENNMNAAVSTVKDFLSQLRSSNRRFSIPESGQGGTEMDGFRRTIENQHSRNDVMVSEWLNKLNLEE
notes: human RIPK3 kinase domain, residues 2–356; The His6 fusion is TEV protease-cleavable; also called SBP-hRIPK3; hRIPK3 kinase domain; source: Sf21 insect cells (bacmid from pFastBac Htb); not shown: SBP, N-terminal, kept
Take B3: the binding result in data set [3] is reported as “binds”.
